Measured values published in patent publication US11872270B2, “A*03 restricted peptides for use in immunotherapy against cancers and related methods” (Immatics Biotechnologies GmbH, priority 2018, dated 2024).

Target: HLA-A*03:01 (Homo sapiens, UniProt P04439)
Assay: MHC binding assay (UV-ligand exchange, β2m ELISA)
Settings: binding to HLA-A*03:01, UV-ligand exchange, β2m ELISA
Excerpt: Candidate peptides for T cell based therapies according to the present invention were further tested for their MHC binding capacity (affinity). The individual peptide-MHC complexes were produced by UV-ligand exchange, where a UV-sensitive peptide is cleaved upon UV-irradiation and exchanged with the peptide of interest as analyzed. Only peptide candidates that can effectively bind and stabilize the peptide-receptive MHC molecules prevent dissociation of the MHC complexes. To determine the yield of the exchange reaction, an ELISA was performed based on the detection of the light chain (β2m) of stabilized MHC complexes. The assay was performed as generally described in Rodenko et al. (Rodenko et al., 2006) 96 well MAXISorp plates (NUNC) were coated over night with 2 ug/ml streptavidin in PBS at room temperature, washed 4× and blocked for 1 h at 37° C. in 2% BSA containing blocking buffer. Refolded HLA-A*02:01/MLA-001 monomers served as standards, covering the range of 15-500 ng/ml. Peptide-MHC monomers of the UV-exchange reaction were diluted 100-fold in blocking buffer. Samples were incubated for 1 h at 37° C., washed four times, incubated with 2 ug/ml HRP conjugated anti-β2m for 1 h at 37° C., washed again and detected with TMB solution that is stopped with […]. Absorption was measured at 450 nm. Candidate peptides that show a high exchange yield (preferably higher than 50%, most preferred higher than 75%) are generally preferred for a generation and production of antibodies or fragments thereof, and/or T cell receptors or fragments thereof, as they show sufficient avidity to the MHC molecules and prevent dissociation of the MHC complexes.

Peptide exchange (MHC class I binding score, peptide exchange yield) | Substance
+++ (>50 = +++) | 67 (VVREILHAQTLK; listed as Homo sapiens) [compound 67]
++++ (>75% = ++++) | 102 (RLLQHTPSAR; listed as Homo sapiens) [compound 102]
++++ (>75% = ++++) | 163 (MLYYPSVSR; listed as Homo sapiens) [compound 163]
++++ (>75% = ++++) | 168 (ATNGKVLKK; listed as Homo sapiens) [compound 168]
++++ (>75% = ++++) | 103 (SIYKKAVYR; listed as Homo sapiens) [compound 103]
++++ (>75% = ++++) | 27 (SGSTLECILYK; listed as Homo sapiens) [compound 27]
++++ (>75% = ++++) | 191 (SLYNLGGAK; listed as Homo sapiens) [compound 191]
+++ (>50 = +++) | 93 (SVEGLSRRLK; listed as Homo sapiens) [compound 93]
+++ (>50 = +++) | 79 (AVAAVLLSR; listed as Homo sapiens) [compound 79]
++ (>20% = ++) | 95 (FLGLAFHPK; listed as Homo sapiens) [compound 95]
++ (>20% = ++) | 39 (KTQFPQLK; listed as Homo sapiens) [compound 39]
+++ (>50 = +++) | 153 (LASSPAGHK; listed as Homo sapiens) [compound 153]
+++ (>50 = +++) | 34 (AIGTPLIGK; listed as Homo sapiens) [compound 34]
+ (>10% = +) | 142 (SPRVYWLGLNDR; listed as Homo sapiens) [compound 142]
++ (>20% = ++) | 50 (HSAGIFSMY; listed as Homo sapiens) [compound 50]
+++ (>50 = +++) | 2 (KVMPKQTWK; listed as Homo sapiens) [compound 2]
++++ (>75% = ++++) | 143 (KTLGKIAEK; listed as Homo sapiens) [compound 143]
++++ (>75% = ++++) | 136 (ALSRMSQQY; listed as Homo sapiens) [compound 136]
++++ (>75% = ++++) | 262 (TMWQIPQEFVK; listed as Homo sapiens) [compound 262]
++ (>20% = ++) | 41 (RLGAARGQLR; listed as Homo sapiens) [compound 41]
+++ (>50 = +++) | 112 (ASLAAAVLAK; listed as Homo sapiens) [compound 112]

Peptide exchange (MHC class I binding score, peptide exchange yield) | Substance
++ (>20% = ++) | 17 (GGLSSQGVYY; listed as Homo sapiens) [compound 17]
++++ (>75% = ++++) | 25 (KTWAHCMSY; listed as Homo sapiens) [compound 25]
++ (>20% = ++) | 144 (PLAMLAATCNK; listed as Homo sapiens) [compound 144]
++++ (>75% = ++++) | 174 (KMMKRLMTVEK; listed as Homo sapiens) [compound 174]
++++ (>75% = ++++) | 84 (QLYSPPSPSYR; listed as Homo sapiens) [compound 84]
+++ (>50 = +++) | 86 (RVSGSGGGGAGK; listed as Homo sapiens) [compound 86]
+++ (>50 = +++) | 217 (RVYEGDGRNSLK; listed as Homo sapiens) [compound 217]
++++ (>75% = ++++) | 31 (HAFFPKTHR; listed as Homo sapiens) [compound 31]
++ (>20% = ++) | 156 (VSLGIAVSK; listed as Homo sapiens) [compound 156]
+++ (>50 = +++) | 100 (TTNARILAR; listed as Homo sapiens) [compound 100]
++++ (>75% = ++++) | 224 (SLYDGFLSY; listed as Homo sapiens) [compound 224]
+++ (>50 = +++) | 149 (TVFLSKYLKK; listed as Homo sapiens) [compound 149]
+++ (>50 = +++) | 54 (GVTITKTLK; listed as Homo sapiens) [compound 54]
++++ (>75% = ++++) | 209 (KILDRVLSRY; listed as Homo sapiens) [compound 209]
++++ (>75% = ++++) | 203 (IVAFIPLSNK; listed as Homo sapiens) [compound 203]
+++ (>50 = +++) | 20 (LLPTVLIKK; listed as Homo sapiens) [compound 20]
++++ (>75% = ++++) | 221 (RLAVSTRGK; listed as Homo sapiens) [compound 221]
++++ (>75% = ++++) | 196 (AISSTVLGK; listed as Homo sapiens) [compound 196]
+ (>10% = +) | 38 (SLFPYYNNLY; listed as Homo sapiens) [compound 38]
+++ (>50 = +++) | 173 (VSYNRLIK; listed as Homo sapiens) [compound 173]
+++ (>50 = +++) | 132 (ASSFRPLLSK; listed as Homo sapiens) [compound 132]

Peptide exchange (MHC class I binding score, peptide exchange yield) | Substance
++++ (>75% = ++++) | 220 (ALPRQAFHSK; listed as Homo sapiens) [compound 220]
++++ (>75% = ++++) | 160 (RLLPGKVVWK; listed as Homo sapiens) [compound 160]
++++ (>75% = ++++) | 177 (ALLGVIIAKK; listed as Homo sapiens) [compound 177]
++++ (>75% = ++++) | 223 (GISNPITTSK; listed as Homo sapiens) [compound 223]
++++ (>75% = ++++) | 82 (CLANYTVNK; listed as Homo sapiens) [compound 82]
++++ (>75% = ++++) | 199 (IVFPDVISK; listed as Homo sapiens) [compound 199]
++++ (>75% = ++++) | 141 (RLRDYISSLK; listed as Homo sapiens) [compound 141]
+++ (>50 = +++) | 211 (VSLGTPIMK; listed as Homo sapiens) [compound 211]
++++ (>75% = ++++) | 110 (IIFIPATILLK; listed as Homo sapiens) [compound 110]
++++ (>75% = ++++) | 200 (RVLPPLTRILK; listed as Homo sapiens) [compound 200]
++++ (>75% = ++++) | 43 (TVYDSIWCNMK; listed as Homo sapiens) [compound 43]
++ (>20% = ++) | 11 (PLPRPGAVLK; listed as Homo sapiens) [compound 11]
++ (>20% = ++) | 37 (EVILTTKTPK; listed as Homo sapiens) [compound 37]
++ (>20% = ++) | 106 (LLRSGLTLR; listed as Homo sapiens) [compound 106]
++ (>20% = ++) | 92 (KRIPFRPLAK; listed as Homo sapiens) [compound 92]
++ (>20% = ++) | 14 (VAFFVLPSK; listed as Homo sapiens) [compound 14]
+++ (>50 = +++) | 215 (KIWQNLRLK; listed as Homo sapiens) [compound 215]
+++ (>50 = +++) | 178 (RIYVYVKRK; listed as Homo sapiens) [compound 178]
+++ (>50 = +++) | 12 (KVLTRNIEY; listed as Homo sapiens) [compound 12]
++++ (>75% = ++++) | 87 (RLASVGLDAK; listed as Homo sapiens) [compound 87]
++++ (>75% = ++++) | 213 (KLYPTHACR; listed as Homo sapiens) [compound 213]
